The text below walks through data of patent publication US20050180952A1, “Methods for intradermal delivery of therapeutics agents” (priority 2003, published 2005).

Entries after “also recorded” stand apart in the source; their conditions may differ.

Series [1] relates to RSV. Put plainly: Synagis plaque assay in vitro. As to conditions: FIG. 8. The format is cell-based.
Series [2] has as its system RSV. Put plainly: Virus challenge: viable virus in lung homogenates on Hep-2 monolayers. The format is in vivo, Mice. To be noted: single IN dose ~2.25 mg/Kg (15% of dose) 3 hours after infection with 1.3×10^5 PFU, 100 ul per well. As to the method:
Mice were challenged with 1.3×10^5 plaque forming units. Three hours after infection a test group was treated with a single dose of Palivizumab IN (˜2.25 mg/Kg) and a control group received saline. Three days after infection, lung tissue was collected and homogenized. The subsequent homogenates were dispensed onto Hep-2 monolayers and the cultures were monitored for evidence of viable virus. The total homogenate volume recovered from each animal was approximately 1.5 to 2 mls and the amount placed in each test well was 100 ul.

For the substance “Palivizumab: RSV Specific MAB (Palivizumab), Synagis, humanized antibody”, the “peak lung antibody concentration relative to any other delivery route” value (IN 100 μl group, 15 mg/kg) was “at least 2 times”. The “persistence of IN-delivered antibody in lung” value (IN delivery) is “short lived”. In addition, the “concentration of antibody capable of blocking high numbers of virus” value with RSV [1] came out at 6 µg/mL. Besides, the “Lung Tissue Collected @ 72 Hours Post Infection (assayed straight), PFU” value with RSV [2] is recorded as “no plaque forming units were observed; also recorded: No PFU Observed”.
